{"source": "patent US20180245061A1", "about": "“Modified Heterocyclase” (THE UNIVERSITY COURT OF THE UNIVERSITY OF ABERDEEN, priority 2014, published 2018)", "molecules": {"B1": {"name": "LynD K409E: LynD point mutant K409E (protein)", "chain": "MQSTPLLQIQPHFHVEVIEPKQVYLLGEQANHALTGQLYCQILPLLNGQYTLEQIVEKLDGEVPPEYIDYVLERLAEKGYLTEAAPELSSEVAAFWSELGIAPPVAAEALRQPVTLTPVGNISEVTVAALTTALRDIGISVQTPTEAGSPTALNVVLTDDYLQPELAKINKQALESQQTWLLVKPVGSVLWLGPVFVPGKTGCWDCLAHRLRGNREVEASVLRQKQAQQQRNGQSGSVIGCLPTARATLPSTLQTGLQFAATEIAKWIVKYHVNATAPGTVFFPTLDGKIITLNHSILDLKSHILIKRSQCPTCGDPKILQHRGFEPLKLESRPKQFTSDGGHRGTTPEQTVQKYQHLISPVTGVVTELVRITDPANPLVHTYRAGHSFGSATSLRGLRNTLKHKSSGEGKTDSQSKASGLCEAVERYSGIFQGDEPRKRATLAELGDLAIHPEQCLCFSDGQYANRETLNEQATVAHDWIPQRFDASQAIEWTPVWSLTEQTHKYLPTALCYYHYPLPPEHRFARGDSNGNAAGNTLEEAILQGFMELVERDGVALWWYNRLRRPAVDLGSFNEPYFVQLQQFYRENDRDLWVLDLTADLGIPAFAGVSNRKTGSSERLILGFGAHLDPTIAILRAVTEVNQIGLELDKVPDENLKSDATDWLITEKLADHPYLLPDTTQPLKTAQDYPKRWSDDIYTDVMTCVNIAQQAGLETLVIDQTRPDIGLNVVKVTVPGMRHFWSRFGEGRLYDVPVKLGWLDEPLTEAQMNPTPMPF"}, "B2": {"name": "LynD E423R: LynD point mutant E423R (protein)", "chain": "B1 chain with E409K, E423R"}, "B3": {"name": "LynD K409A: LynD point mutant K409A (protein)", "chain": "B1 chain with E409A"}, "B4": {"name": "LynD fusion: residues 21-38 of the PatE leader and an eleven residue long linker added to the N-terminus of LynD (SEQ ID NO: 39) (protein)", "chain": "MSHHHHHHDYDENLYFQGSQLSSQLAELSEEALGDAGAGAGAGAGAGAMQSTPLLQIQPHFHVEVIEPKQVYLLGEQANHALTGQLYCQILPLLNGQYTLEQIVEKLDGEVPPEYIDYVLERLAEKGYLTEAAPELSSEVAAFWSELGIAPPVAAEALRQPVTLTPVGNISEVTVAALTTALRDIGISVQTPTEAGSPTALNVVLTDDYLQPELAKINKQALESQQTWLLVKPVGSVLWLGPVFVPGKTGCWDCLAHRLRGNREVEASVLRQKQAQQQRNGQSGSVIGCLPTARATLPSTLQTGLQFAATEIAKWIVKYHVNATAPGTVFFPTLDGKIITLNHSILDLKSHILIKRSQCPTCGDPKILQHRGFEPLKLESRPKQFTSDGGHRGTTPEQTVQKYQHLISPVTGVVTELVRITDPANPLVHTYRAGHSFGSATSLRGLRNTLKHKSSGKGKTDSQSKASGLCEAVERYSGIFQGDEPRKRATLAELGDLAIHPEQCLCFSDGQYANRETLNEQATVAHDWIPQRFDASQAIEWTPVWSLTEQTHKYLPTALCYYHYPLPPEHRFARGDSNGNAAGNTLEEAILQGFMELVERDGVALWWYNRLRRPAVDLGSFNEPYFVQLQQFYRENDRDLWVLDLTADLGIPAFAGVSNRKTGSSERLILGFGAHLDPTIAILRAVTEVNQIGLELDKVPDENLKSDATDWLITEKLADHPYLLPDTTQPLKTAQDYPKRWSDDIYTDVMTCVNIAQQAGLETLVIDQTRPDIGLNVVKVTVPGMRHFWSRFGEGRLYDVPVKLGWLDEPLTEAQMNPTPMPF", "modifications": "Modified heterocyclase"}, "B5": {"name": "TruD: cyanobactin heterocyclase from the trunkamide pathway, SEQ ID NO: 3 (protein)", "chain": "MQPTALQIKPHFHVEIIEPKQVYLLGEQGNHALTGQLYCQILPFLNGEYTREQIVEKLDGQVPEEYIDFVLSRLVEKGYLTEVAPELSLEVAAFWSELGIAPSVVAEGLKQPVTVTTAGKGIREGIVANLAAALEEAGIQVSDPRDPKAPKAGDSTAQLQVVLTDDYLQPELAAINKEALERQQPWLLVKPVGSILWLGPLFVPGETGCWHCLAQRLQGNREVEASVLQQKRALQERNGQNKNGAVSCLPTARATLPSTLQTGLQWAATEIAKWMVKRHLNAIAPGTARFPTLAGKIFTFNQTTLELKAHPLSRRPQCPTCGDRETLQRRGFEPLKLESRPKHFTSDGGHRAMTPEQTVQKYQHLIGPITGVVTELVRISDPANPLVHTYRAGHSFGSATSLRGLRNVLRHKSSGKGKTDSQSRASGLCEAIERYSGIFQGDEPRKRATLAELGDLAIHPEQCLHFSDRQYDNRESSNERATVTHDWIPQRFDASKAHDWTPVWSLTEQTHKYLPTALCYYRYPFPPEHRFCRSDSNGNAAGNTLEEAILQGFMELVERDSVCLWWYNRVSRPAVDLSSFDEPYFLQLQQFYQTQNRDLWVLDLTADLGIPAFVGVSNRKAGSSERIILGFGAHLDPTVAILRALTEVNQIGLELDKVSDESLKNDATDWLVNATLAASPYLVADASQPLKTAKDYPRRWSDDIYTDVMTCVEIAKQAGLETLVLDQTRPDIGLNVVKVIVPGMRFWSRFGSGRLYDVPVKLGWREQPLAEAQMNPTPMPF", "modifications": "Prochloron sp. 06037A"}}, "key": {"[1]": {"system": "LynD", "assay": "Trans activation of LynD by exogenous leader peptide (turnover of test peptide ITACITFCAYDG)", "format": "biochemical, Lyngbya sp.", "conditions": "for acceleration of turnover of the test peptide by LynD: 5.5 μM leader peptide in trans, 5 μM LynD, 100 μM ITACITFCAYDG; for heterocycles observed in test peptide with LynD plus leader in trans: overnight incubation", "description": "(§1) For all heterocyclization reactions, […] PatE′ (and variants,) was incubated with 2 μM enzyme in 150 mM NaCl, 10 mM HEPES pH 7.4, 1 mM TCEP, 5 mM ATP and 5 mM MgCl2 for 16 h at 37° C. Samples were analyzed by ESI or MALDI MS (LCT, Micromass or 4800 MALDI TOF/TOF Analyzer, ABSciex). For cis trans activation studies, 100 μM ITACITFCAYDG synthetic test peptide (Peptide Protein Research Ltd) was reacted with 5 μM heterocyclase enzyme in the presence and absence of 5.5 μM LAELSEEAL synthetic peptide, or 5.5 μM full-length PatE′4 leader peptide. The reaction was carried out in 150 mM NaCl, 10 mM HEPES pH 7.4, 1 mM TCEP, 5 mM ATP and 5 mM MgCl2 for 16 h at 37° C. and analyzed as above. Synthetic peptides were purchased from Peptide Protein Research Ltd.\nTo assess the relative rates of heterocyclization under various conditions, heterocyclization reactions were monitored at regular intervals using MALDI TOF MS. In each case, reactions of PatE′ or ITACITFCAYDG synthetic peptide were prepared as described and incubated at 37° C. prior to addition of LynD allowing a 0 time-point to be recorded. Time points for each reaction were recorded as follows: For PatE′ with LynD (standard conditions), PatE′ with LynD in the presence of α-β-methelene ATP, and ITACITFCAYDG with LynD fusion, the reaction was monitored after 1, 5, 10, 15, 20, 30, 45, 60, 90, 120 and 180 minutes; For ITACITFCAYDG with LynD in the absence, and presence of either minimal leader LAELSEEAL peptide, or full length PatE′4 leader peptide, the reaction was monitored after 15, 30, 60, 120, 240 and 1440 minutes. Reactions were set up in triplicate, and each sample was analyzed by MALDI TOF MS in triplicate (9 spectra recorded in total for each reaction at each time point). For each time point, the total ion count for each species (0, 1 and 2 heterocycles) was recorded, averaged and the percentage of each species was calculated. The rate of each reaction relative to the wild-type reaction (PatE′+LynD) was determined. LC-MS of reaction mixtures was performed on a Waters LC-MS system (LCT mass spectrometer and 2795 HPLC) using a Waters MassPrep column (2.1×10 mm). Solvent B was 0.1% formic acid and Solvent A was MeCN containing 0.1% formic acid. Gradient 0-0.5 min 98% B, 0.5-2.5 min linear to 2% B, 2.5-4.5 min 2% B, 4.5-4.6 min linear to 98% B, […] 98% B at 0.05 ml min−1. The following conditions were used on the mass spectrometer: ESI +ve, capillary voltage 3.5 kV, cone voltage 40 V, mass range 500-2500 m/z, RF lens 500. The spectra were combined across the eluted protein peak and the charged ion series processed using Water's MaxEnt algorithm to give protein mass, using peak width at half height on the strongest peak in the ion envelope. […]"}, "[2]": {"system": "PatE′", "sequence (as listed by the source)": "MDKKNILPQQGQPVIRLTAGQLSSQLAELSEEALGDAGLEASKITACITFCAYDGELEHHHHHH", "assay": "Heterocyclization reaction with PatE′, MS analysis", "format": "biochemical", "conditions": "PatE′ with 2 μM enzyme, 5 mM ATP, 5 mM MgCl2, 16 h at 37° C.; TABLE 1", "description": "as §1"}, "[3]": {"system": "ITACITFCAYDG synthetic test peptide", "assay": "Heterocyclization of leaderless core/test peptide ITACITFCAYDG (LCMS, MALDI TOF MS time course)", "format": "biochemical", "conditions": "for heterocycles formed in core peptide ITACITFCAYDG: no leader", "description": "After 16 h core peptide incubated with either TruD or LynD only 1 heterocycle is formed. In contrast when incubated with LynD fusion, the heterocyclization reaction is nearly complete—the sample containing predominantly 2 heterocycles after just 2 h. PatE′ and LynD reaction after 2 h is shown as a reference.\nas §1, with “Synthetic peptides were purchased from Peptide Protein Research Ltd.” left out\nTo assess the relative rates of heterocyclization under various conditions, heterocyclization reactions were monitored at regular intervals using MALDI TOF MS. In each case, reactions of PatE′ or ITACITFCAYDG synthetic peptide were prepared as described and incubated at 37° C. prior to addition of LynD allowing a 0 time-point to be recorded. Time points for each reaction were recorded as follows: For PatE′ with LynD (standard conditions), PatE′ with LynD in the presence of α-β-methelene ATP, and ITACITFCAYDG with LynD fusion, the reaction was monitored after 1, 5, 10, 15, 20, 30, 45, 60, 90, 120 and 180 minutes; For ITACITFCAYDG with LynD in the absence, and presence of either minimal leader LAELSEEAL peptide, or full length PatE′4 leader peptide, the reaction was monitored after 15, 30, 60, 120, 240 and 1440 minutes. Reactions were set up in triplicate, and each sample was analyzed by MALDI TOF MS in triplicate (9 spectra recorded in total for each reaction at each time point). […] The rate of each reaction relative to the wild-type reaction (PatE′+LynD) was determined. […]"}}, "note": "Where a chain is given by its changes, count along the chain named. In names and notes the source's numbering stands. Where no end group is shown, it is not given here.", "data": [{"molecule": "LAELSEEAL (ends and bridges not checked) [minimal leader, residues 26 to 34 of PatE]", "values": [{"measurement": "acceleration of turnover of the test peptide by LynD", "setting": "[1]", "value": 5.0, "unit": "fold"}, {"measurement": "heterocycles observed in test peptide with LynD plus leader in trans", "setting": "[1]", "value": "both heterocycles are observed"}]}, {"molecule": "full-length PatE leader: full-length leader peptide from trypsin digestion of quadruple mutant PatE′4 (D2Y, K3E, K4E, R16E)", "values": [{"measurement": "acceleration of turnover of the test peptide by LynD", "setting": "[1]", "value": 6.7, "unit": "fold"}, {"measurement": "heterocycles observed in test peptide with LynD plus leader in trans", "setting": "[1]", "value": "both heterocycles are observed"}]}, {"molecule": "B1", "values": [{"measurement": "No. of heterocycles (PatE′)", "setting": "[2]", "value": 2}]}, {"molecule": "B2", "values": [{"measurement": "No. of heterocycles (PatE′)", "setting": "[2]", "value": 0}]}, {"molecule": "B3", "values": [{"measurement": "No. of heterocycles (PatE′)", "setting": "[2]", "value": 1}]}, {"molecule": "B4", "values": [{"measurement": "heterocycles formed in core peptide ITACITFCAYDG", "setting": "[3]; after 2 h, LCMS", "value": 2}, {"measurement": "rate of processing both cysteines in the test peptide", "setting": "[3]; compared with native LynD on full length PatE′ substrate", "value": "comparable to the full length PatE′ substrate"}]}, {"molecule": "B5", "values": [{"measurement": "heterocycles formed in core peptide ITACITFCAYDG", "setting": "[3]; after 16 h / overnight, 5 μM enzyme, 100 μM peptide, 37° C.", "value": 1}]}]}
